Experimental data as given in patent US20240316154A1 (Eli Lilly, published 2024).
Like-named read-outs stand apart in the source and are kept apart here.

Assays:
Dog serum albumin [1] = biological target: T1, Dog serum albumin (dog, UniProt P49822 25-608); assay: SPR, SA on chip, 1:1 fit, 25 C
T1 construct: bought; immobilised on a CM5 chip by amine coupling; also called Dog SA

[2] = biological target: T2, Cynomolgus monkey serum albumin (cynomolgus monkey, UniProt A2V9Z4 25-608); assay: SPR, SA on chip, 1:1 fit, 25 C
T2 construct: bought; immobilised on a CM5 chip by amine coupling; also called Cyno SA

Pig serum albumin [3] = biological target: T3, Pig serum albumin (pig, UniProt P08835 25-607); assay: SPR, SA on chip, 1:1 fit, 25 C
T3 construct: bought; immobilised on a CM5 chip by amine coupling; also called Pig SA

Mouse serum albumin [4] = biological target: T4, Mouse serum albumin (mouse, UniProt P07724 25-608); assay: SPR, SA on chip, 1:1 fit, 25 C
T4 construct: bought; immobilised on a CM5 chip by amine coupling; also called Mouse SA

Rat serum albumin [5] = biological target: T5, Rat serum albumin (rat, UniProt P02770 25-608); assay: SPR, SA on chip, 1:1 fit, 25 C
T5 construct: bought; immobilised on a CM5 chip by amine coupling; also called Rat SA

Human serum albumin [6] = biological target: T6, Human serum albumin (human, UniProt P02768 25-609); assay: SPR, SA on chip, 1:1 fit, 25 C
T6 construct: bought; immobilised on a CM5 chip by amine coupling; also called Human SA

Rabbit serum albumin [7] = biological target: T7, Rabbit serum albumin (rabbit, UniProt P49065 25-608); assay: SPR, SA on chip, 25 C
T7 construct: bought; immobilised on a CM5 chip by amine coupling; also called Rabbit SA

[8] = biological target: human GFRAL and human RET on HEK293 cells (human, UniProt Q6UXV0 19-394; P07949 29-1114); assay: cell-based or functional assay
Cow serum albumin [9] = biological target: T8, Cow serum albumin (cow, UniProt P02769 25-607); assay: SPR, SA on chip, 25 C; ka and kd printed as *not applicable
T8 construct: bought; immobilised on a CM5 chip by amine coupling; also called Cow SA

[10] = biological target: IL-2 receptor-dimer pair of the PathHunter IL-2 BioAssay cells; assay: cell-based or functional assay
Dog serum albumin [11] = biological target: T1, Dog serum albumin; assay: SPR, SA on chip, 1:1 fit, 25 C; remark: listed apart in the source
[12] = biological target: T2, Cynomolgus monkey serum albumin; assay: SPR, SA on chip, 1:1 fit, 25 C; remark: listed apart in the source
Pig serum albumin [13] = biological target: T3, Pig serum albumin; assay: SPR, SA on chip, 1:1 fit, 25 C; remark: listed apart in the source
Cow serum albumin [14] = biological target: T8, Cow serum albumin; assay: SPR, SA on chip, 1:1 fit, 25 C
Mouse serum albumin [15] = biological target: T4, Mouse serum albumin; assay: SPR, SA on chip, 1:1 fit, 25 C; remark: listed apart in the source
Rat serum albumin [16] = biological target: T5, Rat serum albumin; assay: SPR, SA on chip, 1:1 fit, 25 C; remark: listed apart in the source
Human serum albumin [17] = biological target: T6, Human serum albumin; assay: SPR, SA on chip, 1:1 fit, 25 C; remark: listed apart in the source
Rabbit serum albumin [18] = biological target: T7, Rabbit serum albumin; assay: SPR, SA on chip, 25 C; remark: listed apart in the source
Dog serum albumin [19] = biological target: T1, Dog serum albumin; assay: SPR, SA on chip, 1:1 fit, 25 C; remark: listed apart in the source
[20] = biological target: T2, Cynomolgus monkey serum albumin; assay: SPR, SA on chip, 1:1 fit, 25 C; remark: listed apart in the source
Pig serum albumin [21] = biological target: T3, Pig serum albumin; assay: SPR, SA on chip, 1:1 fit, 25 C; remark: listed apart in the source
Cow serum albumin [22] = biological target: T8, Cow serum albumin; assay: SPR, SA on chip, 1:1 fit, 25 C; remark: listed apart in the source
Mouse serum albumin [23] = biological target: T4, Mouse serum albumin; assay: SPR, SA on chip, 1:1 fit, 25 C; remark: listed apart in the source
Rat serum albumin [24] = biological target: T5, Rat serum albumin; assay: SPR, SA on chip, 1:1 fit, 25 C; remark: listed apart in the source
Human serum albumin [25] = biological target: T6, Human serum albumin; assay: SPR, SA on chip, 1:1 fit, 25 C; remark: listed apart in the source
[26] = biological target: human ErbB4 receptor (NCBI Ref. Seq. No. NP_001036064.1) (human, UniProt Q15303 26-1308); assay: cell-based or functional assay
Rabbit serum albumin [27] = biological target: T7, Rabbit serum albumin; assay: SPR, SA on chip, 25 C; remark: listed apart in the source
Dog serum albumin [28] = biological target: T1, Dog serum albumin; assay: SPR, SA on chip, 1:1 fit, 25 C; remark: listed apart in the source
[29] = biological target: T2, Cynomolgus monkey serum albumin; assay: SPR, SA on chip, 1:1 fit, 25 C; remark: listed apart in the source
Pig serum albumin [30] = biological target: T3, Pig serum albumin; assay: SPR, SA on chip, 1:1 fit, 25 C; remark: listed apart in the source
Cow serum albumin [31] = biological target: T8, Cow serum albumin; assay: SPR, SA on chip, 1:1 fit, 25 C; remark: listed apart in the source
Mouse serum albumin [32] = biological target: T4, Mouse serum albumin; assay: SPR, SA on chip, 1:1 fit, 25 C; remark: listed apart in the source
Rat serum albumin [33] = biological target: T5, Rat serum albumin; assay: SPR, SA on chip, 1:1 fit, 25 C; remark: listed apart in the source
Human serum albumin [34] = biological target: T6, Human serum albumin; assay: SPR, SA on chip, 1:1 fit, 25 C; remark: listed apart in the source
Rabbit serum albumin [35] = biological target: T7, Rabbit serum albumin; assay: SPR, SA on chip, 25 C; remark: listed apart in the source

B1: VHH-based fusion of Example 5, VHH fusion 5 (MC6.1C22-(G4Q)5-GDF15) (other)
chain: EVQLLESGGGLVQPGGSLRLSCAASGRYIDETAVAWFRQAPGKEREFVAGIGGGVDITYYADSVKGRFTISRDNSKNTLYLQMNSLRPEDTAVYYCAARPGRPLITSKVADLYPYWGQGTLVTVSSGGGGQGGGGQGGGGQGGGGQGGGGQGDHCPLGPGRCCRLHTVRASLEDLGWADWVLSPREVQVTMCIGACPSQFRAANMHAQIKTSLHRLKPDTVPAPCCVPASYNPMVLIQKTDTGVSLQTYDDLLAKDCHCI
notes: also called Compound 5; VHH-GDF15 fusion
- Kd (Dog serum albumin [1]): 0.6 nM
- koff (Dog serum albumin [1]): 0.00068 s⁻¹
- kon (Dog serum albumin [1]): 1.1e+06 M⁻¹ s⁻¹
- Kd [2]: 0.45 nM
- koff [2]: 0.00034 s⁻¹
- kon [2]: 740000 M⁻¹ s⁻¹
- Kd (Pig serum albumin [3]): 3.3 nM
- koff (Pig serum albumin [3]): 0.0028 s⁻¹
- kon (Pig serum albumin [3]): 850000 M⁻¹ s⁻¹
- Kd (Mouse serum albumin [4]): 0.86 nM
- koff (Mouse serum albumin [4]): 0.0012 s⁻¹
- kon (Mouse serum albumin [4]): 1.4e+06 M⁻¹ s⁻¹
- Kd (Rat serum albumin [5]): 0.74 nM
- koff (Rat serum albumin [5]): 0.00077 s⁻¹
- kon (Rat serum albumin [5]): 1e+06 M⁻¹ s⁻¹
- Kd (Human serum albumin [6]): 0.2 nM
- koff (Human serum albumin [6]): 0.00014 s⁻¹
- kon (Human serum albumin [6]): 670000 M⁻¹ s⁻¹
- binding result (Rabbit serum albumin [7]): no binding (tested: up to 1000 nM)
- hGFRAL/RET EC50 (pM), p-ERK1/2 AlphaLISA [8]: 101 pM
- Kd (Cow serum albumin [9]): 28 nM

B2: VHH-based fusion of Example 6, VHH fusion 6 (IL2-(G4Q)5-MC6.1C22.43) (other)
chain: APQSSSTQQTQLQLEHLLLDLQMILNGINNYKNPKLTRMLTFKFYMPKKATELKHLQCLEEELKPLEEVLNLAQSKNFHLRPRDLISRINVIVLELKGSETTFMCEYADETATIVEFLNRWITFAQSIISTLTGGGGQGGGGQGGGGQGGGGQGGGGQEVQLLESGGGLVQPGGSLRLSCAASGRYIDETAVAWFRQAPGKEREFVAGIGGGVDITYYADSVKGRFTISRDNSKNTLYLQMNSLRPEDTAVYYCAARPGRPLITSKVADLYPYWGQGTLVTVSSPP
notes: also called Compound 6; IL-2-VHH fusion
- EC50 (nM), PathHunter IL-2 BioAssay [10]: 6.7 nM
- Kd (Dog serum albumin [11]): 19 nM
- koff (Dog serum albumin [11]): 0.0034 s⁻¹
- kon (Dog serum albumin [11]): 170000 M⁻¹ s⁻¹
- Kd [12]: 5 nM
- koff [12]: 0.00088 s⁻¹
- kon [12]: 180000 M⁻¹ s⁻¹
- Kd (Pig serum albumin [13]): 100 nM
- koff (Pig serum albumin [13]): 0.012 s⁻¹
- kon (Pig serum albumin [13]): 120000 M⁻¹ s⁻¹
- Kd (Cow serum albumin [14]): 380 nM
- koff (Cow serum albumin [14]): 0.071 s⁻¹
- kon (Cow serum albumin [14]): 190000 M⁻¹ s⁻¹
- Kd (Mouse serum albumin [15]): 50 nM
- koff (Mouse serum albumin [15]): 0.0087 s⁻¹
- kon (Mouse serum albumin [15]): 170000 M⁻¹ s⁻¹
- Kd (Rat serum albumin [16]): 34 nM
- koff (Rat serum albumin [16]): 0.0066 s⁻¹
- kon (Rat serum albumin [16]): 190000 M⁻¹ s⁻¹
- Kd (Human serum albumin [17]): 1.5 nM
- koff (Human serum albumin [17]): 0.00026 s⁻¹
- kon (Human serum albumin [17]): 180000 M⁻¹ s⁻¹
- binding result (Rabbit serum albumin [18]): no binding (tested: up to 1000 nM)

B3: VHH-based fusion of Example 4, VHH fusion 4 (MC6.1C22-(G4Q)5-NRG1) (other)
chain: EVQLLESGGGLVQPGGSLRLSCAASGRYIDETAVAWFRQAPGKEREFVAGIGGGVDITYYADSVKGRFTISRDNSKNTLYLQMNSLRPEDTAVYYCAARPGRPLITSKVADLYPYWGQGTLVTVSSGGGGQGGGGQGGGGQGGGGQGGGGQSHLVKCAEKEKTFCVNGGECFMVKDLSNPSRYLCKCPNEFTGDRCQNYVMASFYKHLGIEFMEAEELYQ
notes: also called Compound 4; VHH-NRG1 fusion
- Kd (Dog serum albumin [19]): 2.2 nM
- koff (Dog serum albumin [19]): 0.0017 s⁻¹
- kon (Dog serum albumin [19]): 780000 M⁻¹ s⁻¹
- Kd [20]: 0.94 nM
- koff [20]: 0.00063 s⁻¹
- kon [20]: 680000 M⁻¹ s⁻¹
- Kd (Pig serum albumin [21]): 15 nM
- koff (Pig serum albumin [21]): 0.006 s⁻¹
- kon (Pig serum albumin [21]): 400000 M⁻¹ s⁻¹
- Kd (Cow serum albumin [22]): 100 nM
- koff (Cow serum albumin [22]): 0.058 s⁻¹
- kon (Cow serum albumin [22]): 570000 M⁻¹ s⁻¹
- Kd (Mouse serum albumin [23]): 6.4 nM
- koff (Mouse serum albumin [23]): 0.0042 s⁻¹
- kon (Mouse serum albumin [23]): 660000 M⁻¹ s⁻¹
- Kd (Rat serum albumin [24]): 3.1 nM
- koff (Rat serum albumin [24]): 0.003 s⁻¹
- kon (Rat serum albumin [24]): 970000 M⁻¹ s⁻¹
- Kd (Human serum albumin [25]): 0.19 nM
- koff (Human serum albumin [25]): 0.00019 s⁻¹
- kon (Human serum albumin [25]): 1e+06 M⁻¹ s⁻¹
- EC50 (ng/mL), PathHunter ErbB4/ErbB4 dimerization assay [26]: 112 ng/mL
- binding result (Rabbit serum albumin [27]): no binding (tested: up to 1000 nM)

B4: VHH-based fusion of Example 3, VHH fusion 3 (NRG1-(G4Q)5-MC6.1C22.43) (other)
chain: SHLVKCAEKEKTFCVNGGECFMVKDLSNPSRYLCKCPNEFTGDRCQNYVMASFYKHLGIEFMEAEELYQGGGGQGGGGQGGGGQGGGGQGGGGQEVQLLESGGGLVQPGGSLRLSCAASGRYIDETAVAWFRQAPGKEREFVAGIGGGVDITYYADSVKGRFTISRDNSKNTLYLQMNSLRPEDTAVYYCAARPGRPLITSKVADLYPYWGQGTLVTVSSPP
notes: also called Compound 3; NRG1-VHH fusion
- EC50 (ng/mL), PathHunter ErbB4/ErbB4 dimerization assay [26]: 33.5 ng/mL
- Kd (Dog serum albumin [28]): 19 nM
- koff (Dog serum albumin [28]): 0.0032 s⁻¹
- kon (Dog serum albumin [28]): 170000 M⁻¹ s⁻¹
- Kd [29]: 6.1 nM
- koff [29]: 0.00087 s⁻¹
- kon [29]: 140000 M⁻¹ s⁻¹
- Kd (Pig serum albumin [30]): 130 nM
- koff (Pig serum albumin [30]): 0.012 s⁻¹
- kon (Pig serum albumin [30]): 93000 M⁻¹ s⁻¹
- Kd (Cow serum albumin [31]): 470 nM
- koff (Cow serum albumin [31]): 0.072 s⁻¹
- kon (Cow serum albumin [31]): 160000 M⁻¹ s⁻¹
- Kd (Mouse serum albumin [32]): 62 nM
- koff (Mouse serum albumin [32]): 0.0088 s⁻¹
- kon (Mouse serum albumin [32]): 140000 M⁻¹ s⁻¹
- Kd (Rat serum albumin [33]): 52 nM
- koff (Rat serum albumin [33]): 0.006 s⁻¹
- kon (Rat serum albumin [33]): 120000 M⁻¹ s⁻¹
- Kd (Human serum albumin [34]): 1.9 nM
- koff (Human serum albumin [34]): 0.00023 s⁻¹
- kon (Human serum albumin [34]): 120000 M⁻¹ s⁻¹
- binding result (Rabbit serum albumin [35]): no binding (tested: up to 1000 nM)
